Measured values from US20220324996A1 (published 2022).

Legend:
[1] = molecular target: T1, human SIRP-α v1 (human, UniProt P78324 31-149); test: SPR
T1 construct: Soluble SIRP analyte in SPR; also called hSIRPa v1; Human V1
Protocol: The interactions of anti-SIRPα antibodies with SIRPα from various species (human v1, human v2, cynomolgus, mouse 129, BL6, BALBc, NOD), SIRPβ and SIRPγ were analyzed using two methods, direct immobilization of the antibodies (via GLC chip) or capture via biotinylated Protein A (via NLC chip), according to the following protocols. All experiments were performed at 25° C. using a SPR-based ProteOn XPR36 biosensor (BioRad. Inc, Hercules, Calif.) equipped with GLC or NLC sensor chips. […] Purification was carried out by standard Protein A affinity column chromatography and eluted antibodies were stored in PBS buffer.

[2] = molecular target: T2, human SIRP-γ (human, UniProt Q9P1W8 29-147); test: SPR
T2 construct: Soluble SIRP analyte in SPR; also called hSIRPg; SIRPg
T2 sequence (Q9P1W8 29-147 limits assumed): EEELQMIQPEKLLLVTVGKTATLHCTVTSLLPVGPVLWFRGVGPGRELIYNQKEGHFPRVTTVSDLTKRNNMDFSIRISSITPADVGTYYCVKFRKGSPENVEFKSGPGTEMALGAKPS

T1 sequence (P78324 31-149 limits assumed): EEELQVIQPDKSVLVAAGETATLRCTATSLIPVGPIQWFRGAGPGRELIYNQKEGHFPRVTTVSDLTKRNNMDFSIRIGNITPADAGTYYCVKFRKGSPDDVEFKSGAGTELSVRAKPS

B1: Hum1/AB21_HC_Mutall (antibody, V domains shown)
VH: EVQLVESGGGVVQPGGSLRLSCAASGFTFSSNAMSWVRQAPGKGLEWVAGISAGGSDTYYPASVKGRFTISRDNSKNTLYLQMNSLRAEDTAVYYCARETWNHLFDYWGQGTLVTVSS
VL: SYELTQPPSVSVSPGQTARITCSGGSYSSYYYAWYQQKPGQAPVTLIYSDDKRPSNIPERFSGSSSGTTVTLTISGVQAEDEADYYCGGYDQSSYTNPFGGGTKLTVL
notes: also called Hum1/AB21mutall
Binder B1 has a Kd [1] of no more than 0.01 nM and a Kd [2] greater than 1 pM.
